Data reported in patent US20050182242A1, “Global analysis of protein activities using proteome chips” (priority 2001, published 2005).

Key:
Conditions in all cases: liposome binding signal on yeast proteome chip, Cy3-streptavidin detection
PI(4,5)P2 liposomes = experiment: Yeast proteome chip probed with PI(4,5)P2 liposomes
PI(3,4)P2 liposomes = experiment: Yeast proteome chip probed with PI(3,4)P2 liposomes
PI(3)P liposomes = experiment: Yeast proteome chip probed with PI(3)P liposomes
PI(3,4,5)P3 liposomes = experiment: Yeast proteome chip probed with PI(3,4,5)P3 liposomes
PI(4)P liposomes = experiment: Yeast proteome chip probed with PI(4)P liposomes
[1] = tested on: phosphatidylcholine (PC) liposomes; experiment: Yeast proteome chip probed with PC liposomes
Procedure, shortened: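 Yeast proteome chips incubated 1 h at RT with sonicated liposomes of PC containing 1% (w/w) biotin-DHPE, plus 5% (w/w) of the indicated phosphoinositide where applicable. After PBS washes, bound liposomes detected with Cy3- or Cy5-streptavidin (>30 min, RT, dark) and fluorescence scanned.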

Row | Molecule | PI(4, 5)P2 (PI(4,5)P2 liposomes) | PI(3, 4)P2 (PI(3,4)P2 liposomes) | PI(3)P (PI(3)P liposomes) | PI(3, 4, 5)P3 (PI(3,4,5)P3 liposomes) | PI(4)P (PI(4)P liposomes) | PC [1]
1 | AKL1: yeast GST-HisX6 fusion protein on proteome chip (protein, UniProt P38080 2-1108, looked up, GST-His6 tag, yeast GST-HisX6 fusion protein on proteome chip) Serine/threonine-protein …: SITNGTSRSVSAMGHPAVERYTPGHIVCVGTHKVEVVNYLAEGGFAQIYVVKFLEYLNEFDNTASVPLKIGDVACLKRVLVQDENGLNEMRNEVEVMKKLKGAPNIVQYFDSNASRRRDGVQGFEVLLLMELCPNKSLLDYMNQRLSTKLTEAEIVKIMYDVALSISQMHYLPVSLIHRDIKIENVLVDAKNNFKLADFGSTSTCFPIVTTHQDIALLTQNIYVHTTPQYRSPEMIDLYRCLPINEKSDIWALGVFLYKLLFFTTPFEMTGQFAILHSKYEFPVNKYSSKLINLIIIMLAENPNLRPNIYQVLYHLCEILNVEVPIEDKYAEGAYNFSKYTQFQNKLQNVQLQMYQLQQKKIMQNNKLSDSEENLLNDMFLSSFEISSKLPMNASDGHAAVSRIPSQNVGQELEEEKESQSDQRKSTLSEDKSSRTTSNANSSGTANNPQEINTIQSPGIEDKSIFENKTPGELYYPSVSELDTYLDKELVKQSSDPTISEQSPRLNTQSLPQRQKSTSSYSSGGRSMKSTSYGAATIGSDEALANEKTAGINKMKQHKSNNPFPKMNVAYHSTNELSNDASNFFLEEQQQGQRYQQAQNQTGTQGNTFPDESQYQSRVEQQQQQQDQPKGPANYSQRNFYTGRDRSNKPMQLGGTIAGDSGNRRVNFQNISQNYATNSQSGYLPSQNSPAIPMVRPVISMNQQQAQQIQAQQLQAQQMQAKQQMQAKQQMQVQQQLQVQQQMQIQNANNNGTYVSDRTNHTTEDMRNAQGGEPPILAGNSANEPMHSSSKNEALLIELSPLKEDAGKQSFQDTNEPQTGGIEDAGGSGTIKGSNNNRNGVLNLSLNEMDLSRDDTGAAVSSFSSSSSSASIQQAKLSGRKGSSKRNNYSTDELGDSMVSSESIDIDLDDARRGKTAERRPLHNERGHKDQARSSDASKSNQFKSKDFSSVSTRQPRQSLDLNFQEVNLSSPTLTQEHRNKNDSPAPNSHHSYRVSPHASTAITENKRHSTGHELSTRSNGKHETHRTGSKQRHDLERYRHSKDKDSNSSITISTSTPSEMRKSFARARQSLDLERVRREAMASSASSSGGSNGKRRSFFSVFRSEK | 57.48 | 132.49 | 19.50 | 93.38 | 189.44 | 207.20
2 | APG1: yeast GST-HisX6 fusion protein on proteome chip (protein, UniProt P53104 1-897, looked up, GST-His6 tag, yeast GST-HisX6 fusion protein on proteome chip) Serine/threonine-protein …: MGDIKNKDHTTSVNHNLMASAGNYTAEKEIGKGSFATVYRGHLTSDKSQHVAIKEVSRAKLKNKKLLENLEIEIAILKKIKHPHIVGLIDCERTSTDFYLIMEYCALGDLTFLLKRRKELMENHPLLRTVFEKYPPPSENHNGLHRAFVLSYLQQLASALKFLRSKNLVHRDIKPQNLLLSTPLIGYHDSKSFHELGFVGIYNLPILKIADFGFARFLPNTSLAETLCGSPLYMAPEILNYQKYNAKADLWSVGTVVFEMCCGTPPFRASNHLELFKKIKRANDVITFPSYCNIEPELKELICSLLTFDPAQRIGFEEFFANKVVNEDLSSYELEDDLPELESKSKGIVESNMFVSEYLSKQPKSPNSNLAGHQSMADNPAELSDALKNSNILTAPAVKTDHTQAVDKKASNNKYHNSLVSDRSFEREYVVVEKKSVEVNSLADEVAQAGFNPNPIKHPTSTQNQNVLLNEQFSPNNQQYFQNQGENPRLLRATSSSSGGSDGSRRPSLVDRRLSISSLNPSNALSRALGIASTRLFGGANQQQQQQQITSSPPYSQTLLNSQLFHELTENIILRIDHLQHPETLKLDNTNIVSILESLAAKAFVVYSYAEVKFSQIVPLSTTLKGMANFENRRSMDSNAIAEEQDSDDAEEEDETLKKYKEDCLSTKTFGKGRTLSATSQLSATFNKLPRSEMILLCNEAIVLYMKALSILSKSMQVTSNWWYESQEKSCSLRVNVLVQWLREKFNECLEKADFLRLKINDLRFKHASEVAENQTLEEKGSSEEPVYLEKLLYDRALEISKMAAHMELKGENLYNCELAYATSLWMLETSLDDDDFTNAYGDYPFKTNIHLKSNDVEDKEKYHSVLDENDRIIIRKYIDSIANRLKILRQKMNHQN | 319.65 | 138.45 | 72.00 | 92.70 | 668.47 | 464.28
3 | MET8: yeast GST-HisX6 fusion protein on proteome chip (protein, left off: a dimerising Fc or GST, yeast GST-HisX6 fusion protein on proteome chip) MVKSLQLAHQLKDKKILLIGGGEVGLTRLYKLIPTGCKLTLVSPDLHKSIIPKFGKFIQNEDQPDYREDAKRFINPNWDPTKNEIYEYIRSDFKDEYLDLEDENDAWYIIMTCIPDHPESARIYHLCKERFGKQQLVNVADKPDLCDFYFGANLEIGDRLQILISTNGLSPRFGALVRDEIRNLFTQMGDLALEDAVVKLGELRRGIRLLAPDDKDVKYRMDWARRCTDLFGIQHCHNIDVKRLLDLFKVMFQEQNCSLQFPPRERLLSEYCSS | 244.09 | 95.44 | 117.00 | 25.42 | 175.94 | 188.12
4 | LYS1: yeast GST-HisX6 fusion protein on proteome chip (protein, UniProt P38998 2-373, looked up, GST-HisX6 tag, yeast GST-HisX6 fusion protein on proteome chip) Saccharopine dehydrogenase …: AAVTLHLRAETKPLEARAALTPTTVKKLIAKGFKIYVEDSPQSTFNINEYRQAGAIIVPAGSWKTAPRDRIIIGLKEMPETDTFPLVHEHIQFAHCYKDQAGWQNVLMRFIKGHGTLYDLEFLENDQGRRVAAFGFYAGFAGAALGVRDWAFKQTHSDDEDLPAVSPYPNEKALVKDVTKDYKEALATGARKPTVLIIGALGRCGSGAIDLLHKVGIPDANILKWDIKETSRGGPFDEIPQADIFINCIYLSKPIAPFTNMEKLNNPNRRLRTVVDVSADTTNPHNPIPIYTVATVFNKPTVLVPTTAGPKLSVISIDHLPSLLPREASEFFSHDLLPSLELLPQRKTAPVWVRAKKLFDRHCARVKRSSRL | 22.21 | 81.94 | 3.50 | 61.20 | 198.15 | 255.33
5 | OPY1: yeast GST-HisX6 fusion protein on proteome chip (protein, UniProt P38271 1-328, looked up, GST-His6 fusion tag, yeast GST-HisX6 fusion protein on proteome chip) Pleckstrin homology domain …: MIAGATAPSSQHEILIASNLIKKPSTSQNKTPTAQSSSGNNGAADGAPQGYHHHHHHHRHLWWPRTTDHQYWCVLRKNQFAYYKTRDEREAISVIPRFDILNFKISELDGILTVYTPSKDLIFKFPRGQNEKVGMELMHNWKIALEKFLSSPSGNESVTTGSDYDEEEDDDDLIVVDEKAGPSSSKHSCSLTMDEQLSREDKEFYRMFDPRNAEHQVCSGILYTKVKKKKLFNRAKWQKFNVELTNTSFNLYSFKTGKLKKSIKLDKIIDCIELDNNSKMKNDDTNFALITFDERLSFKAANDQDMVDWIINFKSGILIRKKLKAENI | 37.89 | 179.27 | 17.50 | 41.17 | 188.13 | 250.04
